Target: mare1_human MAPRE1 (UniProt Q15691)
Sequence (Q15691 whole entry): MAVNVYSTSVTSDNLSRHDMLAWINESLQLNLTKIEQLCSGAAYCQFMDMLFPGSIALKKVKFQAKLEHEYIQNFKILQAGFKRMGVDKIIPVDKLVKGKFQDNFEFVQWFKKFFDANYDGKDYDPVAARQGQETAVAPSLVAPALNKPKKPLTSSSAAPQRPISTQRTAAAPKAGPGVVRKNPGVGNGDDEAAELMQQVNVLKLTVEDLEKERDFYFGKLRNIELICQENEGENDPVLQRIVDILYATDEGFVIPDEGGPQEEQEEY

With “Dystonin (Homo sapiens), Q03001 I7552N;P7553N” as the substance, how does the “effect of a mutation on the interaction” value read?
Its value is “decreasing interaction”.
